In test [1] the test system is mice. As to the kind of experiment: Intrathecal administration, Mouse Grimace Scale scoring. Type of test: in vivo. As to the method:
Mouse grimace scoring was conducted using the Mouse Grimace Scale (MGS) described by (49). After acclimating to the suspended plexiglass chambers for an hour, mice were scored according to the MGS by blinded experimenters at baseline and post treatment time points which are indicated in each figure. The grimace scores were averaged by group at each time point and plotted respectively.
(§1) Intrathecal injections were performed as previously described under isoflurane anesthesia (6). Drugs were administered in a 5 μL volume with a Hamilton syringe. Drugs were diluted in sterile saline. Heat denaturation was done by heating proteins at 70° C. for 30 mins. VLK, KD-VLK, DIA1, FAM69c and denatured controls were administered at concentrations of 0.1 mg/mL PAP was administered at 250 mU (12). APV was administered at 0.2 mg/mL.

For test [2], the system named is mice. Put plainly: Intrathecal administration, von Frey mechanical withdrawal thresholds. Type of test: in vivo, mouse. As to the method: Behavior. Mechanical Withdrawal Thresholds were determined using von Frey Filament testing, following the method of (48). Animals were habituated to plexiglass chambers (11.4×7.6×7.6 cm) suspended on wire mesh racks. Baseline withdrawal thresholds were measured before experimental treatments, and subsequent testing was done at various timepoints indicated in each figure. Mechanical sensitivity was determined by applying von Frey filaments to the plantar aspect of the hind paws, and a response was indicated by flicking or withdrawal of the paw. For mice subjected to hindpaw incision surgeries, filaments were instead applied to the heel of the hindpaw near the site of injury but avoiding scar tissue.
as §1

The next test has as its system neuronal cFos expression. As to the kind of experiment: cFos/NeuN staining of lumbar spinal cord dorsal horn after intrathecal administration. Type of test: in vivo, mouse. As to the method: cFos and NeuN staining of free-floating tissue sections. Adult mice were euthanized by isoflurane inhalation. Lumbar spinal cords were dissected and drop fixed in 10% formalin for 2 hours, cryoprotected, embedded in OCT (Fisher #1437365) and frozen on dry ice. Tissues were cryostat sectioned at […]. Tissues were blocked in 0.1M Phosphate buffer with 10% Normal Goat Serum and 0.3% Triton-X and incubated in cFos and NeuN primary antibodies for 48 hours at 4° C. Secondary antibodies were incubated for 2 hours at room temperature. Sections were slide mounted and cover slipped with Prolong Gold Antifade. Images were taken on an Olympus Fluoview FV1000 confocal microscope at 20× magnification. cFos^+ cell counts were carried out using Imaris software.
as §1

A further test has as its target T1, EphB2-NMDAR interaction (Homo sapiens, UniProt P29323).
T1 sequence (P29323 19-1055): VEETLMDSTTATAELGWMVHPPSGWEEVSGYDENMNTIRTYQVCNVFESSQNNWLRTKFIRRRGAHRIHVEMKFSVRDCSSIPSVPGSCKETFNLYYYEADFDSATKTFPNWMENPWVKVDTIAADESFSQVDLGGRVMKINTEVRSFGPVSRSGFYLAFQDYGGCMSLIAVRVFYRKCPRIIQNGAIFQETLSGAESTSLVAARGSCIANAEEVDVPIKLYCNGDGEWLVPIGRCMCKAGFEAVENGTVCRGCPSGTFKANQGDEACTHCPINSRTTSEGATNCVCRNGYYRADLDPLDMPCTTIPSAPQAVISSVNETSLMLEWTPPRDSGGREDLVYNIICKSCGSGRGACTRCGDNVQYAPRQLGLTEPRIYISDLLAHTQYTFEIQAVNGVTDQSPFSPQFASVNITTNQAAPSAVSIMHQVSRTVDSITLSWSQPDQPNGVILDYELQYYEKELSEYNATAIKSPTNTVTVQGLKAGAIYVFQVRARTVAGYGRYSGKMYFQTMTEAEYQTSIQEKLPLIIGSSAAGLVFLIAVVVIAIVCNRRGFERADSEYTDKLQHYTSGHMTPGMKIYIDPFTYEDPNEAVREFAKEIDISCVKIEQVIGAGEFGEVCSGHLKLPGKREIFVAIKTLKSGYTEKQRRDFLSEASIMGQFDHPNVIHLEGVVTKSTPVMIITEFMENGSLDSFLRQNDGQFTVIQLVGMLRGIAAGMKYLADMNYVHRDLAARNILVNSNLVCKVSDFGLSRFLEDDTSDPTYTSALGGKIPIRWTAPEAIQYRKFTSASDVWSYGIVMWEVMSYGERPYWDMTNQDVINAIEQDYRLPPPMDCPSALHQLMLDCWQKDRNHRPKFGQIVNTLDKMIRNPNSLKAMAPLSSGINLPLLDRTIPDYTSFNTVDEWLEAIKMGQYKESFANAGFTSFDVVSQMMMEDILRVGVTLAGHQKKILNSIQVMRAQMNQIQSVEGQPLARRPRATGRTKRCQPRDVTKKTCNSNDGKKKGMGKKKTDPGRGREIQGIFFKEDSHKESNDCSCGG
As to the kind of experiment: Proximity ligation assay (PLA) of EphB2-NMDAR in transfected HEK293T cells. Type of test: cell-based. The conditions noted are these: non-permeabilized HEK293T cells, 100 ng recombinant protein, 45 minutes. The procedure:
Recombinant protein—HEK293T cells were treated with 100 ng recombinant VLK, Fam69C, or DIA1. Synaptosomes were treated with 100 ng recombinant VLK. 1 mM ATP (Cat #A9187; Sigma) was applied as indicated. Recombinant PAP treatment was applied at 100 ng.
Proximity Ligation Assay (PLA). As previously described, PLA experiments on HEK293T cells, mouse brain, and human spinal cord synaptosomes were performed (4). Synaptosome PLA combined with vGlut1 immunostaining was also previously described (4).

Test [3] concerns endogenous EphB2-NMDAR interaction. As to the kind of experiment: EphB2/GluN1 co-immunoprecipitation in untransfected cultured cortical neurons. The test is classed as cell-based. The conditions noted are these: untransfected rat cortical neurons, 45 min. The procedure: Primary neuronal culture and transfection. Primary neuronal cultures were derived from embryonic day 17-18 (E17-18) rat cerebral cortex and maintained as described previously (4, 6). 8×10^6 neurons were plated for 10 cm dishes and 1×10^6 neurons were plated per well of 6 well dishes for biochemical assays. 2×10^5 neurons were plated on glass bottom dishes for live cell imaging experiments. As previously described, neuronal cultures were transfected using Lipofectamine 2000 (4, 6).
Western Blotting, Immunoprecipitation (IP) and Co-IP. HEK293T cells and cultured neurons were lysed in RIPA buffer to generate protein lysates. Cortices of postnatal day 35 (P35) transgenic mice Pkdcc^flox/flox CaMKII^Cre/+ and its WT littermate controls were also lysed using RIPA buffer and an equal amount of protein was used to perform IP. Pooled dorsal horns from Pkdcc^flox/flox Pirt^Cre/+ uninjured mice and their WTlittermate controls were lysed in RIPA. Following lysis, an additional Percoll gradient spin was carried out to remove myelin and unwanted cellular debris (37) and an equal amount of protein was used to perform IP. For conditioned ACSF IP, ACSF was filtered through a […] syringe filter (Millipore, cat #SLGV004SL) and incubated with antibody for 2 h at 4° C. followed by addition of Protein-G beads and incubation overnight at 4° C. […]

The target in test [4] is T2, EphB2 extracellular domain (Homo sapiens, UniProt P29323).
T2 construct: purified recombinant protein fragment with EphB2 extracellular domain (EphB2 (200 ng), active; Millipore); purchased Millipore
T2 sequence (P29323 19-543 limits assumed): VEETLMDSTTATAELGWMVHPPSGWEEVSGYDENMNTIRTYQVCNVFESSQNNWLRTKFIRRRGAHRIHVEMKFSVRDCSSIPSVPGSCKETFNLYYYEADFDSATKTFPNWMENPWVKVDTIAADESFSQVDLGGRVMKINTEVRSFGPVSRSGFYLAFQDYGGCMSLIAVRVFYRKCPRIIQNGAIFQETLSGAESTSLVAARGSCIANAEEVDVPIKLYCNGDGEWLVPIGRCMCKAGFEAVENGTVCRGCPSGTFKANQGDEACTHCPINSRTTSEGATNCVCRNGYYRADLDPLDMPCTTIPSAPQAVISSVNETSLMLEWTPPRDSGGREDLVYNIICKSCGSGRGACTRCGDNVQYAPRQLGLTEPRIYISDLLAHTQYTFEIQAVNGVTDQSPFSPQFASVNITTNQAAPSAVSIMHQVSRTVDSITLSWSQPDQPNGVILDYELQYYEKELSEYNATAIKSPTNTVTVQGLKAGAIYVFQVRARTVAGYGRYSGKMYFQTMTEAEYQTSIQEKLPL
Put plainly: In vitro cell-free kinase assay. Type of test: biochemical. The conditions noted are these: 100 ng kinase, 200 ng EphB2 ectodomain, ATP, 37° C., 30 min. The procedure: In vitro Kinase assay. For the in vitro kinase assay purified recombinant protein fragment with EphB2 extracellular domain (EphB2 (200 ng), active; Millipore) and active VLK (100 ng), VLK-KD (100 ng), Fam69C (100 ng), DIA1 (100 ng) was used. The kinase reaction was started by adding 10 mM MnCl2, 10 mM MgAc, and 100 μM ATP in ACSF buffer. After 30 min of incubation at 37° C., phosphorylated proteins were separated by SDS-PAGE and analyzed by western blotting with anti-phosphotyrosine antibody (PY99) and EphB2. This protocol was also previously described (6)

Where [5] appears, read: agent given intrathecally before or together with VLK.
The mark [6] stands for this setting: intrathecal, 0.1 mg/mL in 5 μL, kinase given alone.

2 molecules from patent US20250289906A1, “MODULATION OF EXTRACELLULAR KINASE ACTIVITY AND FUNCTION FOR TREATMENT OF PAIN AND NEURODEGENERATIVE/NEUROIMMUNE DISEASE” (BOARD OF REGENTS, THE UNIVERSITY OF TEXAS SYSTEM, priority 2024, published 2025) can be followed below.

Take `NC(CCCP(=O)(O)O)C(=O)O` (stereo not shown) [AP5, reference compound]: the VLK-induced grimacing result in the test on mice [1] (setting [5]) was “blocked the VLK-induced pain phenotype”. The VLK-induced mechanical sensitivity result in the test on mice [2] (setting [5]) is recorded as “blocked the VLK-induced pain phenotype”. Moreover, the “VLK-induced neuronal cFos expression” value in the test with neuronal cFos expression (VLK+AP5 intrathecal) is reported as “blocked”.

B1: VLK: active recombinant Vertebrate Lonesome Kinase (VLK/PKDCC), GST-tagged, purified from BL21 cells (protein)
chain: PRPGQSPEPSPAPGPGRRGGRGELARQIRARYEEVQRYSRGGPGPGAGRPERRRLMDLAPGGPGLPRPRPPWARPLSDGAPGWPPAPGPGSPGPGPRLGCAALRNVSGAQYMGSGYTKAVYRVRLPGGAAVALKAVDFSGHDLGSCVREFGVRRGCYRLAAHKLLKEMVLLERLRHPNVLQLYGYCYQDSEDIPDTLTTITELGAPVEMIQLLQTSWEDRFRICLSLGRLLHHLAHSPLGSVTLLDFRPRQFVLVDGELKVTDLDDARVEETPCAGSTDCILEFPARNFTLPCSAQGWCEGMNEKRNLYNAYRFFFTYLLPHSAPPSLRPLLDSIVNATGELAWGVDETLAQLEKVLHLYRSGQYLQNSTASSSTEYQCIPDSTIPQEDYRCWPSYHHGSCLLSVFNLAEAVDVCESHAQCRAFVVTNQTTWTGRQLVFFKTGWSQVVPDPNKTTYVKASG
In the case of B1, the “grimacing (grimace scores, affective pain)” value in the test with mice [1] (setting [6]) is “increased grimacing”. For the same molecule, the “EphB2-NMDAR interaction on the cell surface (PLA)” value in the test with EphB2-NMDAR interaction (listed as rVLK) was “induces the EphB2-NMDAR interaction on the cell surface”; in the test with EphB2-NMDAR interaction (listed as recombinant VLK), “induced the EphB2-NMDAR interaction on the cell surface”. Moreover, the “mechanical thresholds (von Frey)” value in the test with mice [2] (setting [6]) is given as “sharp drop in mechanical thresholds”. The “neuronal cFos expression (cFos+ cells)” value with neuronal cFos expression (intrathecal VLK alone) is recorded as “significant increase in neuronal cFos expression”. The “endogenous EphB2-NMDAR interaction (co-IP GluN1 with EphB2)” value in test [3] is reported as “induces the endogenous EphB2-NMDAR interaction”. In addition, the “tyrosine phosphorylation of EphB2 ectodomain” value in test [4] is on record as “unique capacity to phosphorylate the EphB2 ectodomain”.
